Assay results as given in paper PMC3275592, “Structural and Functional Insights into Endoglin Ligand Recognition and Binding” (PLoS ONE, 2012).

B2: LG-EndoEC, full length extracellular region of human endoglin (residues 22-587), low glycosylation (domain or fragment, UniProt P17813 22-587, looked up)
chain: TSLAETVHCDLQPVGPERGEVTYTTSQVSKGCVAQAPNAILEVHVLFLEFPTGPSQLELTLQASKQNGTWPREVLLVLSVNSSVFLHLQALGIPLHLAYNSSLVTFQEPPGVNTTELPSFPKTQILEWAAERGPITSAAELNDPQSILLRLGQAQGSLSFCMLEASQDMGRTLEWRPRTPALVRGCHLEGVAGHKEAHILRVLPGHSAGPRTVTVKVELSCAPGDLDAVLILQGPPYVSWLIDANHNMQIWTTGEYSFKIFPEKNIRGFKLPDTPQGLLGEARMLNASIVASFVELPLASIVSLHASSCGGRLQTSPAPIQTTPPKDTCSPELLMSLIQTKCADDAMTLVLKKELVAHLKCTITGLTFWDPSCEAEDRGDKFVLRSAYSSCGMQVSASMISNEAVVNILSSSSPQRKKVHCLNMDSLSFQLGLYLSPHFLQASNTIEPGQQSFVQVRVSPSVSEFLLQLDSCHLDLGPEGGTVELIQGRAAKGNCVSLLSPSPEGDPRFSFLLHFYTVPIPKTGTLSCTVALRPKTGSQDQEVHRTVFMRLNIISPDLSGCTSKGL
modifications: short, well defined sugars of the type Man5NAG2 (low glycosylation); putative Asn glycosylation sites Asn88, Asn102, Asn121, Asn134 and Asn307 (Asn306 in Figure 1)
notes: endoglin, human, extracellular region, residues 22-587; Dimeric and monomeric species seen on gels; also called endoglin ectodomain; source: HEK293S GnTI- suspension cells, transfected, secreted, purified (HisTrap, gel filtration); not shown: 6xHis, C-terminal, kept

Assays:
[1] = molecular target: Endo362, endoglin orphan domain construct with the linker region (residues 22-361 or 22-362) (human) (UniProt P17813); assay: SDS-PAGE under reducing and non-reducing conditions with anti-His6 western blot; 10% SDS gel, 0.5 µg protein; with or without 10 mM DTT (1 h, 65°C); boiled at 95°C for 5 min; disulfide-linked dimer
[2] = molecular target: Bone morphogenetic protein 9 (BMP-9) (human) (UniProt Q9UK05); assay: SPR; Biacore T100; BMP-9 immobilised on CM5 chip by amine coupling; analyte alone at six concentrations 12.5-400 nM; 25°C; 10 mM HEPES pH 7.4, 150 mM NaCl, 3 mM EDTA, 0.05% P20; 1:1 binding model, global fit; apparent KD; triplicates
[3] = molecular target: T1, HG-EndoEC, full length extracellular region of human endoglin (residues 22-587), high glycosylation (human, UniProt P17813 22-587, mature, branched sugars (high glycosylation); putative Asn glycosylation sites Asn88, Asn102, Asn121, Asn134 and Asn307 (Asn306 in Figure 1)); assay: SPR; Biacore T100; endoglin coinjected with a constant saturating concentration of HG-ALK1EC over immobilised BMP-9; 25°C; 10 mM HEPES pH 7.4, 150 mM NaCl, 3 mM EDTA, 0.05% P20; 1:1 binding model; conditions: both partners purified
T1 construct: endoglin, human, extracellular region, residues 22-587; EndoEC dimerized to some extent through a disulfide bond; also called endoglin ectodomain; source: HEK293 FreeStyle (HEK293F), transfected, secreted, purified (HisTrap, gel filtration)
T1 sequence (looked up): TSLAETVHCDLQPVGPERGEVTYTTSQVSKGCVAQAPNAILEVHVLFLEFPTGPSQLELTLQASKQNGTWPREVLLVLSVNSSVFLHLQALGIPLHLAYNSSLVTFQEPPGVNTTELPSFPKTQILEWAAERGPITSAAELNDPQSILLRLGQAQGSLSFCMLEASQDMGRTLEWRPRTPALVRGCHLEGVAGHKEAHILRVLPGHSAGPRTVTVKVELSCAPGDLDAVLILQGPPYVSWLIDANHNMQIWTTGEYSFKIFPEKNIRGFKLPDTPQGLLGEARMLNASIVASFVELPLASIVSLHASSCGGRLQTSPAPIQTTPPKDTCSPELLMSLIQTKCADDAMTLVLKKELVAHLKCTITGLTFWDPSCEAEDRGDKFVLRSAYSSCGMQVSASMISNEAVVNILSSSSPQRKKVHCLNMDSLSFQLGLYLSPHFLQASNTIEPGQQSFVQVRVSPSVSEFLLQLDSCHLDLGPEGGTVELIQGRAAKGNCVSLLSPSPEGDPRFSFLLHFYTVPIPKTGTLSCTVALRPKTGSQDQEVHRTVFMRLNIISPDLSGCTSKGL

[4] = molecular target: B2; assay: as above; conditions: both partners purified
[5] = molecular target: T1, HG-EndoEC, full length extracellular …; assay: SPR; Biacore T100; BMP-9 immobilised on CM5 chip by amine coupling; analyte alone at six concentrations 12.5-400 nM; 25°C; 10 mM HEPES pH 7.4, 150 mM NaCl, 3 mM EDTA, 0.05% P20; 1:1 binding model, global fit; apparent KD; triplicates; conditions: both partners purified
[6] = molecular target: B2; assay: as above; conditions: both partners purified
[7] = molecular target: T2, Endo338, endoglin orphan domain construct (residues 22-337) (human, UniProt P17813 22-337, Man5NAG2 glycans (5 modelled at their attachment sites)); assay: as above; conditions: both partners purified
T2 construct: also called Endoglin338; OD; source: HEK293S GnTI- suspension cells, transfected, secreted, purified (HisTrap, gel filtration); not shown: 6xHis, C-terminal, kept
T2 sequence (looked up): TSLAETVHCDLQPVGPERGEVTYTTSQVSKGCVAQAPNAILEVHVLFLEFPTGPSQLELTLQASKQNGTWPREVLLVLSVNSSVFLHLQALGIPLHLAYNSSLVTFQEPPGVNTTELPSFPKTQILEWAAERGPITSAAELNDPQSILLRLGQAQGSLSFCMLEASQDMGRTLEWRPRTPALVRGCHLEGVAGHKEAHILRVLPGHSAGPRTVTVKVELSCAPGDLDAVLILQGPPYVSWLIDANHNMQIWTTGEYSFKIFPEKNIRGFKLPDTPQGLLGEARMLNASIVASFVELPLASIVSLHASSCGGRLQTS

[8] = molecular target: the molecule itself; assay: SDS-PAGE under reducing and non-reducing conditions with anti-His6 western blot; 10% SDS gel, 0.5 µg protein; with or without 10 mM DTT (1 h, 65°C); boiled at 95°C for 5 min; disulfide-linked dimer

Endo362, endoglin orphan domain construct with the linker region (residues 22-361 or 22-362) (from UniProt P17813 22-361) (domain or fragment)
stoichiometry N [1]: 2
Kd [2]: 8.96 nM
koff [2]: 0.00108 s⁻¹
kon [2]: 120000 M⁻¹ s⁻¹

B1: Bone morphogenetic protein 9 (BMP-9) (ligand, human, UniProt Q9UK05 320-429, looked up)
chain: SAGAGSHCQKTSLRVNFEDIGWDSWIIAPKEYEAYECKGGCFFPLADDVTPTKHAIVQTLVHLKFPTKVGKACCVPTKLSPISVLYKDDMGVPTLKYHYEGMSVAECGCR
notes: BMP-9, human, carrier-free protein from R&D Systems; Immobilised on a CM5 chip by amine coupling; also called Bone Morphogenetic Protein (BMP)-9; source: bought: R&D Systems (carrier free)
Kd [3]: 14.7 nM
koff [3]: 0.00153 s⁻¹
kon [3]: 274000 M⁻¹ s⁻¹
Kd [4]: 3.27 nM
koff [4]: 0.000925 s⁻¹
kon [4]: 283000 M⁻¹ s⁻¹
Kd [5]: 9.94 nM
koff [5]: 0.00207 s⁻¹
kon [5]: 208000 M⁻¹ s⁻¹
Kd [6]: 2.01 nM
koff [6]: 0.000891 s⁻¹
kon [6]: 442000 M⁻¹ s⁻¹
Kd [7]: 276 nM
koff [7]: 0.254 s⁻¹
kon [7]: 914000 M⁻¹ s⁻¹

B2
stoichiometry N [8]: 2
